Molecular target: T1, CepR (His-tagged response regulator) (Streptomyces clavuligerus F613-1) (UniProt E2PWN2)
T1 sequence: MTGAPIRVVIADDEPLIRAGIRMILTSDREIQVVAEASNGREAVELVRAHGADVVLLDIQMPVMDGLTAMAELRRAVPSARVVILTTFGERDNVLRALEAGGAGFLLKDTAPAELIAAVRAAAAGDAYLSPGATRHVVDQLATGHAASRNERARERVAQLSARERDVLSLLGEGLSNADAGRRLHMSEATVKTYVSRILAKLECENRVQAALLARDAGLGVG
Experiment: EMSA
Conditions: EMSA with 0.5-3.0 ug His-CepR and 1.0 ug poly(dI-dC); buffer, salt, pH and temperature not given (as in Fu et al. 2019; Zhang et al. 2015)

ATGGTCGTCCGATCGCCGCACGATCACTGATCAAGCCCTGCCCCACCCCGGCGCAAAAATTATCCGCCGGGTCATCACGCGTCATCACCACGTAATTCGGGACGGGAATACCCTGCCGCATTCCCGCCGGGGCGGCCCGGTGGGGCGGCTCCCCTCCCGCAGGCGCGGCGGTGCCCGTCGCACACTCAAGGAAGAGGGCAATGAACGA (double strand) [cefD-cmcI intergenic P1]
binding: no binding

Source: paper PMC6661058
